{"source": "patent US20250019437A1", "binders": {"B1": {"name": "6E7 antibody affinity modulation variant V36 (antibody, V domains shown)", "VH": "EVQLVQSGAEVKKPGESLKISCKGSGYSFTSYWLAWVRQMPGKGLEWMGIIYPGDSDTRYSPSFQGQVTISADKSISTAYLQWSSLKASDTAMYFCARSRTFYYDSSDYFDYWGQGTLVTVSS", "VL": "DIQMTQSPSSVSASVGDRVTITCRASQGISSWLAWYQQKPGKAPKLLIYAASSRQNGVPSRFSGSGSGTDFTLTISSLQPEDFATYFCQQADSYPRTFGQGTKLEIK"}, "B2": {"name": "6E7 antibody affinity modulation variant V91 (antibody, V domains shown)", "VH": "B1 VH with L34I, G54D, S99Q", "VL": "B1 VL with R54L, Y94F"}, "B3": {"name": "6E7 antibody affinity modulation variant V92 (antibody, V domains shown)", "VH": "B1 VH with L34I, S99Q, Y103H", "VL": "B1 VL with R54L, Y94F"}, "B4": {"name": "6E7 antibody affinity modulation variant V93 (antibody, V domains shown)", "VH": "B1 VH with L34I, S99Q", "VL": "B1 VL with S31G, R54L, Y94F"}, "B5": {"name": "6E7 antibody affinity modulation variant V67 (antibody, V domains shown)", "VH": "B1 VH with L34I, I50M, S99Q", "VL": "B1 VL with R54L, Y94F"}, "B6": {"name": "6E7 antibody affinity modulation variant V70 (antibody, V domains shown)", "VH": "B1 VH with L34I, S99Q", "VL": "B1 VL with S52G, R54L, Y94F"}, "B7": {"name": "6E7 antibody affinity modulation variant V80 (antibody, V domains shown)", "VH": "B1 VH with L34I, S99Q, T101N", "VL": "B1 VL with R54L, Y94F"}, "B8": {"name": "6E7 antibody affinity modulation variant V79 (antibody, V domains shown)", "VH": "B1 VH with L34I, R59N, S99Q", "VL": "B1 VL with R54L, Y94F"}, "B9": {"name": "6E7 antibody affinity modulation variant V21 (antibody, V domains shown)", "VH": "B1 VH with L34I, S99Q, Y109F", "VL": "B1 VL with R54L, Y94F"}, "B10": {"name": "6E7 antibody affinity modulation variant V71 (antibody, V domains shown)", "VH": "B1 VH with L34I, S99Q", "VL": "B1 VL with R54L, Y94E"}, "B11": {"name": "6E7 antibody affinity modulation variant V7 (antibody, V domains shown)", "VH": "B1 VH with Y32E, L34I, S99Q", "VL": "B1 VL with R54L, Y94F"}, "B12": {"name": "6E7 antibody affinity modulation variant V90 (antibody, V domains shown)", "VH": "B1 VH with Y32E, L34I, S99Q", "VL": "B1 VL with S31R, R54L, Y94F"}, "B13": {"name": "6E7 antibody affinity modulation variant V94 (antibody, V domains shown)", "VH": "B1 VH with L34I, S99Q", "VL": "B1 VL with S52A, R54L, Y94F"}, "B14": {"name": "6E7 antibody affinity modulation variant V78 (antibody, V domains shown)", "VH": "B1 VH with S28R, L34I, S99Q", "VL": "B1 VL with R54L, Y94F"}, "B15": {"name": "6E7 antibody affinity modulation variant V32 (antibody, V domains shown)", "VH": "B1 VH with L34I, P62N, S99Q", "VL": "B1 VL with R54L, Y94F"}, "B16": {"name": "6E7 antibody affinity modulation variant V81 (antibody, V domains shown)", "VH": "B1 VH with L34I, S99Q", "VL": "B1 VL with W32L, R54L, Y94F"}, "B17": {"name": "6E7 antibody affinity modulation variant V9 (antibody, V domains shown)", "VH": "B1 VH with L34I, S99Q, T101G", "VL": "B1 VL with R54L, Y94F"}, "B18": {"name": "6E7 antibody affinity modulation variant V66 (antibody, V domains shown)", "VH": "B1 VH with Y27T, L34I, S99Q", "VL": "B1 VL with R54L, Y94F"}, "B19": {"name": "6E7 antibody affinity modulation variant V20 (antibody, V domains shown)", "VH": "B1 VH with L34I, I50R, S99Q", "VL": "B1 VL with R54L, Y94F"}, "B20": {"name": "6E7 antibody affinity modulation variant V19 (antibody, V domains shown)", "VH": "B1 VH with Y32S, L34I, S99Q", "VL": "B1 VL with R54L, Y94F"}, "B21": {"name": "6E7 antibody affinity modulation variant V22 (antibody, V domains shown)", "VH": "B1 VH with L34I, S99Q", "VL": "B1 VL with A50R, R54L, Y94F"}, "B22": {"name": "6E7 antibody affinity modulation variant V18 (antibody, V domains shown)", "VH": "B1 VH with W33H, L34I, S99Q", "VL": "B1 VL with R54L, Y94F"}, "B23": {"name": "6E7 antibody affinity modulation variant V68 (antibody, V domains shown)", "VH": "B1 VH with L34I, S99Q, Y103R", "VL": "B1 VL with R54L, Y94F"}, "B24": {"name": "6E7 antibody affinity modulation variant V23 (antibody, V domains shown)", "VH": "B1 VH with L34I, S99Q", "VL": "B1 VL with R54L, Y94F, R96L"}, "B25": {"name": "6E7 antibody affinity modulation variant V30 (antibody, V domains shown)", "VH": "B1 VH with Y27S, L34I, S99Q", "VL": "B1 VL with R54L, Y94F"}, "B26": {"name": "6E7 antibody affinity modulation variant V69 (antibody, V domains shown)", "VH": "B1 VH with L34I, S99Q", "VL": "B1 VL with W32Y, R54L, Y94F"}, "B27": {"name": "6E7 antibody affinity modulation variant V10 (antibody, V domains shown)", "VH": "B1 VH with L34I, S99Q", "VL": "B1 VL with A50S, R54L, Y94F"}, "B28": {"name": "6E7 antibody affinity modulation variant V31 (antibody, V domains shown)", "VH": "B1 VH with L34I, D57E, S99Q", "VL": "B1 VL with R54L, Y94F"}, "B29": {"name": "6E7 antibody affinity modulation variant V83 (antibody, V domains shown)", "VH": "B1 VH with L34I, S99Q", "VL": "B1 VL with R54L, D92V, Y94F"}, "B30": {"name": "6E7 antibody affinity modulation variant V33 (antibody, V domains shown)", "VH": "B1 VH with L34I, S99Q, Y104G", "VL": "B1 VL with R54L, Y94F"}, "B31": {"name": "6E7 antibody affinity modulation variant V11 (antibody, V domains shown)", "VH": "B1 VH with L34I, S99Q", "VL": "B1 VL with R54L, D92A, Y94F"}, "B32": {"name": "6E7 antibody affinity modulation variant V8 (antibody, V domains shown)", "VH": "B1 VH with L34I, R59K, S99Q", "VL": "B1 VL with R54L, Y94F"}, "B33": {"name": "6E7 antibody affinity modulation variant V82 (antibody, V domains shown)", "VH": "B1 VH with L34I, S99Q", "VL": "B1 VL with A51G, R54L, Y94F"}, "B34": {"name": "6E7 antibody affinity modulation variant V6 (antibody, V domains shown)", "VH": "B1 VH with Y32M, L34I, S99Q", "VL": "B1 VL with R54L, Y94F"}}, "note": "Changes are numbered by the printed parent chain.", "data": [{"target": "T1, human TREM2 (triggering receptor expressed on myeloid cells 2) (human) (UniProt Q9NZC2)", "T1 sequence (looked up)": "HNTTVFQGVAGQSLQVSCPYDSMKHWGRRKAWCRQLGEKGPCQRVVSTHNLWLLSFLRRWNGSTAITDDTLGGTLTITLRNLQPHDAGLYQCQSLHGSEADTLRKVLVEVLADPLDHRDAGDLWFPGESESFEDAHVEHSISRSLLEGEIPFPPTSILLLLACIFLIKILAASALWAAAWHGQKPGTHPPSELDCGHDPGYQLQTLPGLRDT", "experiment": "2nd screen, 2 nM Ab", "units": {"Binding Signal (fold over 6E7 parental antibody)": "fold"}, "values": [{"binder": "B1", "Binding Signal (fold over 6E7 parental antibody)": 4}]}, {"target": "T1, human TREM2 (triggering receptor expressed on myeloid cells 2) (human)", "experiment": "1st screen, 10 nM Ab", "units": {"Binding Signal (fold over 6E7 parental antibody)": "fold"}, "values": [{"binder": "B1", "Binding Signal (fold over 6E7 parental antibody)": 3.38}]}, {"target": "T1, human TREM2 (triggering receptor expressed on myeloid cells 2) (human)", "experiment": "2nd screen, 10 nM Ab", "units": {"Binding Signal (fold over 6E7 parental antibody)": "fold"}, "values": [{"binder": "B1", "Binding Signal (fold over 6E7 parental antibody)": 3.44}]}, {"target": "T1, human TREM2 (triggering receptor expressed on myeloid cells 2) (human)", "experiment": "1st screen, 110 nM Ab", "units": {"Binding Signal (fold over 6E7 parental antibody)": "fold"}, "values": [{"binder": "B2", "Binding Signal (fold over 6E7 parental antibody)": 0.25}, {"binder": "B3", "Binding Signal (fold over 6E7 parental antibody)": 0.22}, {"binder": "B4", "Binding Signal (fold over 6E7 parental antibody)": 0.35}, {"binder": "B5", "Binding Signal (fold over 6E7 parental antibody)": 0.8}, {"binder": "B6", "Binding Signal (fold over 6E7 parental antibody)": 0.79}, {"binder": "B7", "Binding Signal (fold over 6E7 parental antibody)": 0.59}, {"binder": "B8", "Binding Signal (fold over 6E7 parental antibody)": 0.7}, {"binder": "B9", "Binding Signal (fold over 6E7 parental antibody)": 0.76}, {"binder": "B10", "Binding Signal (fold over 6E7 parental antibody)": 0.37}, {"binder": "B11", "Binding Signal (fold over 6E7 parental antibody)": 0.11}, {"binder": "B12", "Binding Signal (fold over 6E7 parental antibody)": 0.33}, {"binder": "B13", "Binding Signal (fold over 6E7 parental antibody)": 0.31}, {"binder": "B14", "Binding Signal (fold over 6E7 parental antibody)": 0.86}, {"binder": "B15", "Binding Signal (fold over 6E7 parental antibody)": 0.82}, {"binder": "B16", "Binding Signal (fold over 6E7 parental antibody)": 0.17}, {"binder": "B17", "Binding Signal (fold over 6E7 parental antibody)": 0.67}, {"binder": "B18", "Binding Signal (fold over 6E7 parental antibody)": 0.25}, {"binder": "B19", "Binding Signal (fold over 6E7 parental antibody)": 0.18}, {"binder": "B20", "Binding Signal (fold over 6E7 parental antibody)": 0.59}, {"binder": "B21", "Binding Signal (fold over 6E7 parental antibody)": 0.3}, {"binder": "B22", "Binding Signal (fold over 6E7 parental antibody)": 0.17}, {"binder": "B23", "Binding Signal (fold over 6E7 parental antibody)": 0.44}, {"binder": "B24", "Binding Signal (fold over 6E7 parental antibody)": 0.4}, {"binder": "B25", "Binding Signal (fold over 6E7 parental antibody)": 0.79}, {"binder": "B26", "Binding Signal (fold over 6E7 parental antibody)": 0.41}, {"binder": "B27", "Binding Signal (fold over 6E7 parental antibody)": 0.76}, {"binder": "B28", "Binding Signal (fold over 6E7 parental antibody)": 0.61}, {"binder": "B29", "Binding Signal (fold over 6E7 parental antibody)": 0.2}, {"binder": "B30", "Binding Signal (fold over 6E7 parental antibody)": 0.23}, {"binder": "B31", "Binding Signal (fold over 6E7 parental antibody)": 0.79}, {"binder": "B32", "Binding Signal (fold over 6E7 parental antibody)": 0.28}, {"binder": "B33", "Binding Signal (fold over 6E7 parental antibody)": 0.3}, {"binder": "B34", "Binding Signal (fold over 6E7 parental antibody)": 0.2}]}, {"target": "T1, human TREM2 (triggering receptor expressed on myeloid cells 2) (human)", "experiment": "2nd screen, 100 nM Ab", "units": {"Binding Signal (fold over 6E7 parental antibody)": "fold"}, "values": [{"binder": "B2", "Binding Signal (fold over 6E7 parental antibody)": 0.61}, {"binder": "B3", "Binding Signal (fold over 6E7 parental antibody)": 0.65}, {"binder": "B4", "Binding Signal (fold over 6E7 parental antibody)": 1.05}, {"binder": "B5", "Binding Signal (fold over 6E7 parental antibody)": 0.84}, {"binder": "B6", "Binding Signal (fold over 6E7 parental antibody)": 0.84}, {"binder": "B7", "Binding Signal (fold over 6E7 parental antibody)": 0.5}, {"binder": "B8", "Binding Signal (fold over 6E7 parental antibody)": 0.52}, {"binder": "B9", "Binding Signal (fold over 6E7 parental antibody)": 0.68}, {"binder": "B10", "Binding Signal (fold over 6E7 parental antibody)": 0.48}, {"binder": "B11", "Binding Signal (fold over 6E7 parental antibody)": 0.32}, {"binder": "B12", "Binding Signal (fold over 6E7 parental antibody)": 0.36}, {"binder": "B13", "Binding Signal (fold over 6E7 parental antibody)": 0.87}, {"binder": "B14", "Binding Signal (fold over 6E7 parental antibody)": 1.11}, {"binder": "B15", "Binding Signal (fold over 6E7 parental antibody)": 0.89}, {"binder": "B16", "Binding Signal (fold over 6E7 parental antibody)": 0.23}, {"binder": "B17", "Binding Signal (fold over 6E7 parental antibody)": 0.54}, {"binder": "B18", "Binding Signal (fold over 6E7 parental antibody)": 0.74}, {"binder": "B19", "Binding Signal (fold over 6E7 parental antibody)": 0.52}, {"binder": "B20", "Binding Signal (fold over 6E7 parental antibody)": 0.48}, {"binder": "B21", "Binding Signal (fold over 6E7 parental antibody)": 0.71}, {"binder": "B22", "Binding Signal (fold over 6E7 parental antibody)": 0.42}, {"binder": "B23", "Binding Signal (fold over 6E7 parental antibody)": 0.43}, {"binder": "B24", "Binding Signal (fold over 6E7 parental antibody)": 0.4}, {"binder": "B25", "Binding Signal (fold over 6E7 parental antibody)": 0.72}, {"binder": "B26", "Binding Signal (fold over 6E7 parental antibody)": 0.4}, {"binder": "B27", "Binding Signal (fold over 6E7 parental antibody)": 0.7}, {"binder": "B28", "Binding Signal (fold over 6E7 parental antibody)": 0.73}, {"binder": "B29", "Binding Signal (fold over 6E7 parental antibody)": 0.29}, {"binder": "B30", "Binding Signal (fold over 6E7 parental antibody)": 0.34}, {"binder": "B31", "Binding Signal (fold over 6E7 parental antibody)": 0.42}, {"binder": "B32", "Binding Signal (fold over 6E7 parental antibody)": 0.77}, {"binder": "B33", "Binding Signal (fold over 6E7 parental antibody)": 0.79}, {"binder": "B34", "Binding Signal (fold over 6E7 parental antibody)": 0.56}]}]}
